Columns and labels:
[1] = molecular target: T1, CD20 on the CD20 expressing human mantle cell lymphoma cell line Jeko-1 (human, UniProt P11836 1-297); experiment: Cell-based binding to Jeko-1 cells, Meso Scale Discovery electrochemiluminescence, 4PL; % potency relative to reference standard; TG-1101 from 10 L culture at post-shift pH 6.70 +/- 0.10
T1 construct: whole, on cells; The target is presented on Jeko-1 cells; also called CD20 antigen
T1 sequence (looked up): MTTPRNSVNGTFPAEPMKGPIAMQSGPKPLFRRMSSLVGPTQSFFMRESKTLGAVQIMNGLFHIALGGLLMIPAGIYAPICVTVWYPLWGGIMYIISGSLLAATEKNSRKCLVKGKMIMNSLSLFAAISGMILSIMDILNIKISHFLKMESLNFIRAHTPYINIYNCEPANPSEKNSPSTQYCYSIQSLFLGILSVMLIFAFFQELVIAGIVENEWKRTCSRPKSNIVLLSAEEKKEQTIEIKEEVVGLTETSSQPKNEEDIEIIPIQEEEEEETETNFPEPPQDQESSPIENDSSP
Procedure: (§1) In the CD20 binding activity assay, the binding of anti-CD20 antibody to the CD20 expressing human mantle cell lymphoma cell line, Jeko-1, is evaluated using the Meso Scale Discovery (MSD) method. Dose response curves are modeled using 4PL equation, and results are reported as % potency relative to the reference standard.
(§2) Purified antibody (TG-1101) from each of the 10 L bioreactor cultures was also tested in various binding assays (CD20 antigen, Fc gamma receptor, complement component 1q), as well as Fc effector activity assays (ADCC, CDC).

[2] = molecular target: T1, CD20 on the CD20 expressing human …; experiment: Cell-based binding to Jeko-1 cells, Meso Scale Discovery electrochemiluminescence, 4PL; % potency relative to reference standard; TG-1101 from 10 L culture at post-shift pH 6.85 +/- 0.05
Procedure: as §1, §2

[3] = molecular target: T2, FcγRIIIa-158V (Fc gamma receptor 3a, higher affinity allele) (UniProt P08637 17-208); experiment: SPR, Fc receptor immobilised on chip, antibody injected; 1:1 Langmuir fit; % potency relative to reference standard; TG-1101 from 10 L culture at post-shift pH 6.85 +/- 0.05
T2 construct: Immobilised directly on the SPR chip; also called Fc receptor
Procedure: (§3) The binding of anti-CD20 antibody samples to FcγRIIIa is evaluated by surface plasmon resonance (SPR). The method follows a direct binding assay methodology where the Fc receptor (ligand) is directly immobilized onto the appropriate flow cell on a sensor chip surface and the analyte is injected over the chip to assess binding. The high affinity allele of FcγRIIIa (158V) is determined.
(§4) The equilibrium dissociation constants (KD) and the relative affinities of each sample relative to the reference standard is determined for each receptor. The rates of change of the SPR signal is analyzed using a 1:1 Langmuir model to yield apparent rate constants for the association and dissociation phases of the reaction, and equilibrium dissociation constants. Results are reported as % potency relative to the reference standard for the FcγRIIIa-158V variant.
as §2

[4] = molecular target: T3, C1q (complement component 1q) (UniProt P02745 23-245; P02746 28-253; P02747 29-245); experiment: C1q ELISA, 4-parameter logistic fit; % potency relative to reference standard; TG-1101 from 10 L culture at post-shift pH 6.85 +/- 0.05
Procedure: (§5) The binding of anti-CD20 antibody to C1q is evaluated using a C1q ELISA-based method. The dose-response binding is modeled by weighted nonlinear regression using a 4-parameter logistic fit, and the results are reported as % potency relative to the reference standard.
as §2

[5] = molecular target: T3, C1q (complement component 1q); experiment: C1q ELISA, 4-parameter logistic fit; % potency relative to reference standard; TG-1101 from 10 L culture at post-shift pH 6.95 +/- 0.05
Procedure: as §5, §2

[6] = molecular target: T1, CD20 on the CD20 expressing human …; experiment: Cell-based binding to Jeko-1 cells, Meso Scale Discovery electrochemiluminescence, 4PL; % potency relative to reference standard; TG-1101 from 10 L culture at post-shift pH 6.95 +/- 0.05
Procedure: as §1, §2

[7] = molecular target: T2, FcγRIIIa-158V (Fc gamma receptor 3a, …); experiment: SPR, Fc receptor immobilised on chip, antibody injected; 1:1 Langmuir fit; % potency relative to reference standard; TG-1101 from 10 L culture at post-shift pH 6.95 +/- 0.05
Procedure: as §3, §4, §2

[8] = molecular target: T1, CD20 on the CD20 expressing human …; experiment: Cell-based binding to Jeko-1 cells, Meso Scale Discovery electrochemiluminescence, 4PL; % potency relative to reference standard; TG-1101 from 10 L culture at post-shift pH 6.80 +/- 0.03
Procedure: as §1, §2

[9] = molecular target: T3, C1q (complement component 1q); experiment: C1q ELISA, 4-parameter logistic fit; % potency relative to reference standard; TG-1101 from 10 L culture at post-shift pH 6.80 +/- 0.03
Procedure: as §5, §2

[10] = molecular target: T3, C1q (complement component 1q); experiment: C1q ELISA, 4-parameter logistic fit; % potency relative to reference standard; TG-1101 from 10 L culture at post-shift pH 6.70 +/- 0.10
Procedure: as §5, §2

[11] = molecular target: T2, FcγRIIIa-158V (Fc gamma receptor 3a, …); experiment: SPR, Fc receptor immobilised on chip, antibody injected; 1:1 Langmuir fit; % potency relative to reference standard; TG-1101 from 10 L culture at post-shift pH 6.70 +/- 0.10
Procedure: as §3, §4, §2

[12] = molecular target: T2, FcγRIIIa-158V (Fc gamma receptor 3a, …); experiment: SPR, Fc receptor immobilised on chip, antibody injected; 1:1 Langmuir fit; % potency relative to reference standard; TG-1101 from 10 L culture at post-shift pH 6.80 +/- 0.03
Procedure: as §3, §4, §2

T2 sequence (P08637 17-208 F176V): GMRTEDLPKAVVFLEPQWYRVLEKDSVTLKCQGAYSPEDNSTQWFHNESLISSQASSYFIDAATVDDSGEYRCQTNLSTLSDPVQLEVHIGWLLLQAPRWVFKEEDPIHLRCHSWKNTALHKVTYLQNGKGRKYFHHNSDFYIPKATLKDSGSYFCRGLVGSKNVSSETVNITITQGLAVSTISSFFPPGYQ
T3 sequence (P02745 23-245, chain 1 of 3): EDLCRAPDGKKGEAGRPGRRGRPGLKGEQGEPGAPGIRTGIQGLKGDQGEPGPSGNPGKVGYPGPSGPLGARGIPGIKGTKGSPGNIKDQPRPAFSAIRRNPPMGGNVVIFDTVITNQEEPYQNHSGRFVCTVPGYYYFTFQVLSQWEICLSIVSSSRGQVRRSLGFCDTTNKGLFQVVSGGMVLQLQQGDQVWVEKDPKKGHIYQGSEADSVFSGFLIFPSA
T3 sequence (P02746 28-253, chain 2 of 3): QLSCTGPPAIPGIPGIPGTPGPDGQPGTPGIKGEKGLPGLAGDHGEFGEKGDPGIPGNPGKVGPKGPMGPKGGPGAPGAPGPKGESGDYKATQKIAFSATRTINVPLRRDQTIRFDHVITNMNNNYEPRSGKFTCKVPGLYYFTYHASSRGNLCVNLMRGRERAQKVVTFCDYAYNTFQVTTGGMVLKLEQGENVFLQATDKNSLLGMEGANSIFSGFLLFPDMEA
T3 sequence (P02747 29-245, chain 3 of 3): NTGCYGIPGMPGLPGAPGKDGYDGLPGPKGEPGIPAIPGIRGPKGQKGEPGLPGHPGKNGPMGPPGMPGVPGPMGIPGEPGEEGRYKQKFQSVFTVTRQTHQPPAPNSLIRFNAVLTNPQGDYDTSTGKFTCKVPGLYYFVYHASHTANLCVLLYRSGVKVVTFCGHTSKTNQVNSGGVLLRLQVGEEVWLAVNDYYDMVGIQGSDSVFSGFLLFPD

B1: TG-1101 (anti-CD20 IgG1 monoclonal antibody expressed in YB2/0 rat hybridoma cells) (antibody)
heavy: not shown
light: QIVLSQSPAILSASPGEKVTMTCRASSSVSYMHWYQQKPGSSPKPWIYATSNLASGVPARFSGSGSGTSYSFTISRVEAEDAATYYCQQWTFNPPTFGGGTRLEIKRTVAAPSVFIFPPSDEQLKSGTASVVCLLNNFYPREAKVQWKVDNALQSGNSQESVTEQDSKDSTYSLSSTLTLSKADYEKHKVYACEVTHQGLSSPVTKSFNRGEC
modifications: N-linked glycans with low fucosylation (18.4-27.5 % fucosylation in the 10 L cultures of Table 7)
notes: also called ublituximab; UBX
CD20 binding (%) relative to the reference standard [1]: 116%
CD20 binding (%) relative to the reference standard [2]: 89.5%
FcγRIIIa-158V binding (%) relative to the reference standard [3]: 108%
C1q binding (%) relative to the reference standard [4]: 81.2%
C1q binding (%) relative to the reference standard [5]: 76.5%
CD20 binding (%) relative to the reference standard [6]: 110%
FcγRIIIa-158V binding (%) relative to the reference standard [7]: 109%
CD20 binding (%) relative to the reference standard [8]: 96.8%
C1q binding (%) relative to the reference standard [9]: 84.5%
C1q binding (%) relative to the reference standard [10]: 86.6%
FcγRIIIa-158V binding (%) relative to the reference standard [11]: 120%
FcγRIIIa-158V binding (%) relative to the reference standard [12]: 98.2%

Source: patent US20260062495A1 (TG THERAPEUTICS, published 2026)
